We go through one molecule from US20050170502A1, “Methods for maintaining hepatocytes in culture and for differentiating embryonic stem cells along a hepatocyte lineage” (REGENTS OF THE UNIVERSITY OF CALIFORNIA, priority 2003, published 2005).

The test system of the assay is mouse ES cells (ES-D3). The assay is described as follows: Hepatocyte-specific gene expression in differentiated mouse ES cells, real-time quantitative RT-PCR. Conditions: mouse ES cells, IMDM, collagen type I, day 33, FIG. 2A. On the procedure: Mouse ES cell line ES-D3 and mouse STO fibroblasts were obtained from the American Type Culture Collection, Manassas, Va. ES cells were expanded on STO fibroblast feeder layers in Dulbecco's modified Eagle's medium (DMEM) (unless specified, cell culture supplies were from Invitrogen, Carlsbad, Calif.) containing 15% fetal bovine serum (FBS), 1 mM L-glutamine, 60 μM non-essential amino acid solution, 0.1 mM 2-mercaptoethanol, 10 mM HEPES (Sigma-Aldrich, Saint Louis, Mo.), 1400 U/ml leukemia inhibitory factor (LIF) (Chemicon International, Temecula, Calif.), and penicillin/streptomycin at standard concentrations. To prepare feeder layers, STO fibroblasts were cultured until confluent and treated with 10 μg/ml mitomycin C (Sigma-Aldrich) for 4 hours. […]
Total RNA was extracted with RNeasy Mini Kit (Qiagen, Valencia, Calif.). Real time quantitative RT-PCR was employed for the determination of gene expression as described in detail previously by our group (Wege, H. et al., Gastroenterology 124:432-444 (2003)). […] Relative mouse or human gene expression analysis (ΔΔCT) was performed by real-time quantitative PCR with the ABI Prism 7700 Sequence Detection System and SYBR PCR Green Master Mix or TaqMan PCR Master Mix (Applied Biosystems, Foster City, Calif.). […] Normalized expression of hepatocyte-specific genes was compared to levels detected in primary adult mouse or human hepatocytes.

B1: OnM: oncostatin M (protein, UniProt P13725 26-221, looked up)
Oncostatin-M: AAIGSCSKEYRVLLGQLQKQTDLMQDTSRLLDPYIRIQGLDVPKLREHCRERPGAFPSEETLRGLGRRGFLQTLNATLGCVLHRLADLEQRLPKAQDLERSGLNIEDLEKLQMARPNILGLRNNIYCMAQLLDNSDTAEPTKAGRGASQPPTPTPASDAFQRKLEGCRFLHGYHRFMHSVGRVFSKWGESPNRSRR
Consider B1, for which the “albumin gene expression (effect of individual growth and differentiation factors)” value was “only minor positive or even negative effects”.
